Data taken from patent US20200283478A1 (Genentech, published 2020).

biological target: T1, proprotein convertase subtilisin/kexin type 9 (PCSK9) (human, UniProt Q8NBP7 31-692); experiment: phage spot ELISA
T1 construct: His-tagged full-length PCSK9 in TR-FRET and SPR, biotinylated in phage ELISA; secreted protein is autoprocessed (prodomain plus catalytic/CRD chain starting at S153); also called rec.PCSK9; His-PCSK9
T1 sequence (Q8NBP7 other isoform, or with tags, fused parts or gaps limits assumed): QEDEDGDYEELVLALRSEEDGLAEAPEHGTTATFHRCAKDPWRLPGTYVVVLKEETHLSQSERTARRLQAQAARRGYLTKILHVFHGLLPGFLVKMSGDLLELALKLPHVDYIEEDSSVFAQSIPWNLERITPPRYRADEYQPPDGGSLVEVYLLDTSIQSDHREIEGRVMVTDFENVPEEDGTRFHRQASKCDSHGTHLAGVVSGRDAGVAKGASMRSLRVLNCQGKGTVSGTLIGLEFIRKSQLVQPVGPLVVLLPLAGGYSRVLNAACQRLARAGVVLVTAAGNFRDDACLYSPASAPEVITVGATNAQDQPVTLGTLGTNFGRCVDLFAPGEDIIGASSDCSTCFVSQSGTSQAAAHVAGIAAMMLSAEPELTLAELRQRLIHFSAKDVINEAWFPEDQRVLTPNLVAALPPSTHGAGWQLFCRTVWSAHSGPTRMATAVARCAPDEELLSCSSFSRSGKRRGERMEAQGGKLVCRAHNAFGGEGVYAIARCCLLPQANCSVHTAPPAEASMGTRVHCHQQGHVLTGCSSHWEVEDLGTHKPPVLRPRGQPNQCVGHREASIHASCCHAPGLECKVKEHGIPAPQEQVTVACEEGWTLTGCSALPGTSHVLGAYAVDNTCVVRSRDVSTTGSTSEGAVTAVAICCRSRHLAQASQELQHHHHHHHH

Binder | ELISA | s/n ratio
TAFTSWEEYLDWVGSGKMTHMKAD [SEQ ID NO 357] | 2.31 | 22.4
TAFTSWEEYLDWVGSGGCGYRYMCDMINGL [SEQ ID NO 358] | 2.92 | 32.8
TAFTSWEEYLDWVGSGGDCYPHCRLV [SEQ ID NO 359] | 2.86 | 28.9
TAFTSWEEYLDWVGSGDCLRYRVGSSCS [SEQ ID NO 360] | 3.04 | 29.6
TAFTSWEEYLDWVGSGPTSGLTPS [SEQ ID NO 361] | 2.66 | 27.5
TAFTSWEEYLDWVGSGRCESKGWANTCVSE [SEQ ID NO 362] | 2.98 | 20.7
TAFTSWEEYLDWVGSGQVTSLPQA [SEQ ID NO 363] | 2.46 | 27.9
TAFTSWEEYLDWVGSGRCGLAWCVVLVDQ [SEQ ID NO 365] | 2.62 | 20.8

biological target: T2, PCSK9Δhelix (human, Chemically biotinylated in the phage ELISAs; the site is not given.); experiment: phage spot ELISA
T2 construct: construct M1-Q692 with engineered TEV site, cleaved by TEV; also called His-PCSK9Δhelix; open groove PCSK9Δhelix
T2 sequence (prodomain, as listed by the source mutant limits assumed, chain 1 of 2): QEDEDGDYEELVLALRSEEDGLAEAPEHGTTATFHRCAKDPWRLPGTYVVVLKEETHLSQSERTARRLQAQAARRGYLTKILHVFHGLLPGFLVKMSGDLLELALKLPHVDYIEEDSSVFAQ
T2 sequence (chain, as listed by the source mutant limits assumed, chain 2 of 2): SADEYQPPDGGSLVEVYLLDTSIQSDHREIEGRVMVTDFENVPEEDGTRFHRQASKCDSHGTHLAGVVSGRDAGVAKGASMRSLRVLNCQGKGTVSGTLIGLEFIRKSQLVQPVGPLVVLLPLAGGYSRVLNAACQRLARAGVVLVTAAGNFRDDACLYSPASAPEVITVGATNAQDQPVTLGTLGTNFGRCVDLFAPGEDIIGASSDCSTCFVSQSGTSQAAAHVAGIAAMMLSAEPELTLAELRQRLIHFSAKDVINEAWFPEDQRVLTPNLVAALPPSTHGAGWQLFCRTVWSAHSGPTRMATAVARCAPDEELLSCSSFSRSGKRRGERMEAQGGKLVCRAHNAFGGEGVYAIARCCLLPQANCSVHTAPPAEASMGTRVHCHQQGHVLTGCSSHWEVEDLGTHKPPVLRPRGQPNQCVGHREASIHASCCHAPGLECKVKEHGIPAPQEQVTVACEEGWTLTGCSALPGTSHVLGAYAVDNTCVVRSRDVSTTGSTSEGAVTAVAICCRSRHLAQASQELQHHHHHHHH

Binder | ELISA | s/n ratio
TAFTSWEEYLDWVGSGKMTHMKAD [SEQ ID NO 357] | 0.106 | 1.07
TAFTSWEEYLDWVGSGGCGYRYMCDMINGL [SEQ ID NO 358] | 3.01 | 30.4
TAFTSWEEYLDWVGSGGDCYPHCRLV [SEQ ID NO 359] | 2.85 | 28.5
TAFTSWEEYLDWVGSGDCLRYRVGSSCS [SEQ ID NO 360] | 2.87 | 28.9
TAFTSWEEYLDWVGSGPTSGLTPS [SEQ ID NO 361] | 0.127 | 1.3
TAFTSWEEYLDWVGSGRCESKGWANTCVSE [SEQ ID NO 362] | 2.56 | 15.8
TAFTSWEEYLDWVGSGQVTSLPQA [SEQ ID NO 363] | 0.11 | 1.21
TAFTSWEEYLDWVGSGRCGLAWCVVLVDQ [SEQ ID NO 365] | 2.8 | 28.5

biological target: T1, proprotein convertase subtilisin/kexin …; experiment: phage spot ELISA; remark: another data set of the same source
Text: (§1) The binding signal of the same phage particle to NeutrAvidin was considered as non-specific binding (“noise”).

Binder | ELISA | s/n ratio
TVFTSWEEYLDWV (also called phage displaying Pep2-8) [phage-displayed Pep2-8 (on p8)] | 2.98 | 30
TAFTSWEEYLDWV [phage-displayed Pep2-8V2A] | 1.27 | 16.7
TAFTSWEEYLDWVGSGGCVKYRGSVSCQESKT [SEQ ID NO 323] | 2.85 | 18
TAFTSWEEYLDWVGSGEHQFYSYRGVDVYR [SEQ ID NO 324] | 2.55 | 22.3
TAFTSWEEYLDWVGSGKNNYAYLINMPRAPGI [SEQ ID NO 325] | 2.54 | 24.7
TAFTSWEEYLDWVGSGACLNHFVSGNMIRC [SEQ ID NO 327] | 2.87 | 26.1
TAFTSWEEYLDWVGSGCPFYDWRCSDFS [SEQ ID NO 328] | 2.8 | 25
TAFTSWEEYLDWVGSGNVRCYRDVPSCS [SEQ ID NO 329] | 2.66 | 25.9
TAFTSWEEYLDWVGSGEDVVCYGRVDYMPLCV [SEQ ID NO 330] | 2.67 | 25.2
TAFTSWEEYLDWVGSGNPTYWLTRIS [SEQ ID NO 331] | 2.98 | 23.1
TAFTSWEEYLDWVGSGPHSYWLDRVQ [SEQ ID NO 332] | 2.89 | 25.3
TAFTSWEEYLDWVGSGKLWNLGRV [SEQ ID NO 306] | 2.79 | 28.2

biological target: T2, PCSK9Δhelix; experiment: phage spot ELISA; remark: another data set of the same source
Text: as §1

Binder | ELISA | s/n ratio
TVFTSWEEYLDWV (also called phage displaying Pep2-8) [phage-displayed Pep2-8 (on p8)] | 2.1 | 21.8
TAFTSWEEYLDWV [phage-displayed Pep2-8V2A] | 0.07 | 1.07
TAFTSWEEYLDWVGSGGCVKYRGSVSCQESKT [SEQ ID NO 323] | 2.73 | 24.2
TAFTSWEEYLDWVGSGEHQFYSYRGVDVYR [SEQ ID NO 324] | 2.66 | 26.2
TAFTSWEEYLDWVGSGKNNYAYLINMPRAPGI [SEQ ID NO 325] | 2.54 | 29.1
TAFTSWEEYLDWVGSGACLNHFVSGNMIRC [SEQ ID NO 327] | 1.38 | 8.17
TAFTSWEEYLDWVGSGCPFYDWRCSDFS [SEQ ID NO 328] | 2.78 | 26.5
TAFTSWEEYLDWVGSGNVRCYRDVPSCS [SEQ ID NO 329] | 2.68 | 26.3
TAFTSWEEYLDWVGSGEDVVCYGRVDYMPLCV [SEQ ID NO 330] | 2.7 | 24.8
TAFTSWEEYLDWVGSGNPTYWLTRIS [SEQ ID NO 331] | 3.02 | 28
TAFTSWEEYLDWVGSGPHSYWLDRVQ [SEQ ID NO 332] | 2.68 | 24.6
TAFTSWEEYLDWVGSGKLWNLGRV [SEQ ID NO 306] | 2.62 | 8.55
